{"source": "patent US20250129140A1", "about": "“ANTI-HCMV ANTIBODIES AND ANTIGEN-BINDING FRAGMENTS THEREOF” (ICAHN SCHOOL OF MEDICINE AT MOUNT SINAI, priority 2021, published 2025)", "molecules": {"B1": {"name": "15G11: anti-HCMV gH/gL monoclonal antibody, fusion 1; VH SEQ ID NO:52, VL SEQ ID NO:53; chimeric and fully human IgG1 versions (antibody, V domains shown)", "VH": "QVQLQESGPGLVKPSQTLSLTCTVSGGSISSGYYYWNWIRQHPGKGLECIGYIYYSGTTYYNPSLKSRLFISVDTSKNQFSLKLRSVTAADTAVYYCARGGLGAFDIWGQGTMVTVSS", "VL": "EIVLTQSPGTLSLSPGERATLSCRASQSVSSSYLAWYQQKPGQAPRLLIYGASSRAPGIPDRFSGTGSGTDFTLTISRLEPEDFAVYYCQQYGISPLTFGGGTKVEIK", "modifications": "IgG1 constant regions", "notes": "anti-HCMV gH/gL monoclonal antibody, fusion 1; chimeric and fully human IgG1 versions"}}, "key": {"[1]": {"system": "recombinant HCMV pentamer (strain VR1814) consisting of gH, gL, UL128, UL130 and UL131A", "assay": "Biolayer interferometry (Octet RED) KD determination", "type": "binding, Human cytomegalovirus", "protocol": "Biolayer interferometry assays were performed using the Octet RED instrument (ForteBio, Inc.) to determine the association (kon) and dissociation (kdis) constants for each antibody. Purified monoclonal antibody was loaded onto the anti-mouse Fc IgG capture (AMC) biosensors using 5-fold dilutions (50-0.016 μg/mL in PBS) for 10 minutes. To determine the kon, the sensors were exposed to the recombinant HCMV pentamer (strain VR1814) consisting of gH, gL, UL128, UL130 and UL131A (Native Antigen, CMV-PENT-100) at a constant concentration of 100 μg/mL in PBS for 3 minutes. To determine the kdis, dissociation was measured over the course of 3 minutes while the sensors were in PBS buffer. KD values were calculated as a ratio of […].\nTo examine this further, 293 Expi cells were transfected with wildtype gH, wildtype gL, cotransfected with gH and gL (gH+gL), transfected with a single plasmid expressing both gH and gL (gH/gL) or co-transfected a variety of gH mutants and gL. Three days post transfection the cells were harvested and stained with unlabeled primary at 0.5 μg/mL using the antibodies indicated. Transfection efficiency was determined by measuring GFP expression on day 3 and binding was determined by percent Alexa Fluor 647 positive cells using a conjugated secondary. […] The binding profile for 1G9 is most similar to 10F8. Although the ratios of gH, gL and gO plasmid were 1:1:1 it is not certain how efficiently the trimer was assembled following transfection. […] To discern minute differences in antibody binding biolayer interferometry was used, immobilizing each of the purified monoclonal antibodies (50-0.016 μg/mL) onto anti-mouse IgG Fc capture (AMC) biosensors and exposing the sensors to recombinant pentamer (100 μg/mL)."}, "HCMV AD169R [2]": {"system": "HCMV AD169R", "assay": "Neutralization by fully human versus chimeric antibody versions", "type": "cell-based, Human cytomegalovirus", "details": "fully human (hu) version, human IgG1 Fc", "protocol": "Increasing concentrations of monoclonal antibodies (0.016-50 μg/mL) were incubated with AD169R (MOI 0.2) to assess neutralizing capacity. Percent infection was quantified using GFP expression at 18 hpi and normalized based on infection with virus alone (no antibody). CMV hyperimmune globulin (CytoGam®) was used as a control (trace on the upper right in FIGS. 8A, 8B, 8C, and 8D). FIG. 8A. […] FIG. 8B. Fully human (hu, comprising human variable and human constant regions) and chimeric (ms, comprising human variable and murine constant regions) versions of 9A12. FIG. 8C. Fully human (hu, comprising human variable and human constant regions) and chimeric (ms, comprising human variable and murine constant regions) versions of 13G1. FIG. 8D. Fully human (hu, comprising human variable and human constant regions) and chimeric (ms, comprising human variable and murine constant regions) versions of 14E1.\nFor this, the mouse Fc region of these mAbs was replaced with the human IgG1 Fc region."}, "HCMV": {"system": "HCMV", "assay": "Virus neutralization, summary statements across cell types and strains", "type": "cell-based, Human cytomegalovirus", "details": "MRC5; TB40/E, AD169R, TR, Towne", "experimental": "AD169R^BADrUL131, TB40E, TR, or Towne was pre-incubated with monoclonal antibodies (starting dilution of 100 μg/mL antibody) was diluted using 5 fold dilutions to achieve a final range of 50-0.016 μg/mL antibody after addition to 25 μL of media containing virus; final MOI 0.2) and incubated at 4° C. for 1 hr before the inoculum was added to the appropriate cell types (ARPE-19, HTR-svNeo, MRC5, or NHDF cells at 10,000 cells per well) for 2 hrs at 37° C., 5% CO2. Following infection, the inoculum was removed and replaced with 100 μL complete DMEM/F-12 media before an overnight incubation at 37° C., 5% CO2.\nCells were fixed using 4% paraformaldehyde (PFA) for 20 minutes at room temp. Cells were then permeabilized using 0.3% Triton X-100 (Thermo Fisher, #HFH10) in PBS and stained with an affinity-purified, polyclonal rabbit anti-IE1-1/2 (0.7 ng/ml) primary and an anti-rabbit Alexa Fluor 647 (1:1000) secondary. To quantify total cells per well, Hoechst (Molecular Probes, #H3570) was diluted 1:100,000 in PBS and incubated with cells for 20 minutes at room temp. Virus neutralization was quantified using a Celigo cytometer (Nexelcom Bioscience). Percent infection was calculated using ((#IE1-1+)/(#Hoechst+))*100 events per well and normalized to the percent infection when an irrelevant, non-neutralizing, or no antibody was used.\nThe student's unpaired, two tailed t tests were performed using the GraphPad Prism software (La Jolla, CA). An asterisk identifies statistical significance of P<0.05 or less."}, "TB40/E UL32-eGFP virus": {"system": "TB40/E UL32-eGFP virus", "assay": "Virus attachment assay on ARPE-19 cells", "type": "cell-based, Human cytomegalovirus", "details": "10 μg/mL, 0 or 120 minutes", "protocol": "ARPE-19 cells were plated in glass bottom 12 well plates the day before infection. […] Infection occurred at 37° C. for 0-2 hrs before cells were washed using a citrate wash buffer (pH 3.2) for two minutes at RT. Cells were then washed with PBS and fixed in 4% PFA for 20 minutes at RT before being stained with Hoechst. Plates were read using a Cytation 3 Cell Imaging Multi-Mode Reader (BioTek, Winooski, VT) and images were acquired using brightfield and the 405 and 488 nm lasers.\nTo visualize HCMV virion attachment and entry, a recombinant HCMV strain was used that expresses eGFP fused to the C terminus of the tegument protein pUL32. The tegument protein is tightly associated with the capsid and allows for visualization of virus entry by immunofluorescence. […] Cells were incubated with the virus/antibody for either 0 or 120 minutes before being washed with citrate buffer (pH 3.2) for two minutes and fixed with PFA."}, "HCMV AD169R [3]": {"system": "HCMV AD169R", "assay": "FFU assay in ARPE-19 cells in combination with ganciclovir", "type": "cell-based, Human cytomegalovirus", "details": "combined with ganciclovir (2.5 μM); antibody 10 μg/mL; Day 12", "protocol": "Relative number of plaques present 12 dpi in ARPE-19 cells infected with AD169R. Infection was performed in the presence of antibody at three different concentrations +/−ganciclovir (2.5 μM). On day 12 post infection GFP images were taken and the plaque number was calculated relative to virus alone controls on each plate. M2E10 and CytoGam® were used as negative and positive controls respectively. Each condition was done in triplicate and 10,000 μm^2 was used as a cutoff for plaque area.\nARPE-19 or NHDF cells were plates at 50,000 cells per well in a 24 well and infected the following day. TB40/E (MOI 0.01) and AD169RBAD^rUL131 (MOI 0.1 & 0.01) was incubated with either 10 μg/mL or 0.5 μg/mL of antibody one hour prior to addition to cells. Following a 2 hr incubation at 37° C., 5% CO2 the inoculum was removed, and cells were overlaid with 1% low melt temperature sea agarose overlay. The overlay was allowed to solidify at room temp and then 500 μL of media was added before cells were put back into the incubator. […]\nTo test efficacy of the gH antibodies in combination with ganciclovir, the FFU assay was performed in ARPE-19 cells. […] M2E10 and CytoGam® were used as negative and positive controls respectively and the relative number of plaques was calculated based on cells which received virus alone without any antibody (black bar for each graph). […]"}}, "data": [{"molecule": "B1", "values": [{"measurement": "kdis", "setting": "[1]; dissociation 3 minutes in PBS", "value": "8.69e-05", "unit": "s⁻¹"}, {"measurement": "rank of binding constant within the panel", "setting": "[1]; recombinant pentamer", "value": "strongest"}, {"measurement": "IC50 of infection, version with human constant regions", "setting": "HCMV AD169R [2]", "value": 0.37, "unit": "µg/mL"}, {"measurement": "neutralization of infection across all strains", "setting": "HCMV", "value": "consistently neutralized infection"}, {"measurement": "number of virions bound to the cells", "setting": "TB40/E UL32-eGFP virus", "value": "did not significantly change"}, {"measurement": "reduction in plaques", "setting": "HCMV AD169R [3]", "value": 95, "unit": "%"}]}]}
